From publication PMC4243959, “Sequestration of latent TGF-β binding protein 1 into CADASIL-related Notch3-ECD deposits” (Acta Neuropathologica Communications, 2014) come the findings set out here.

The target of series [1] is recombinant human Notch3 encompassing aa 40-467 (N3EGF1-11-Fc) (human) (UniProt Q9UM47). Briefly: ELISA; solid-phase binding assay: 1 μg N3EGF1-11-Fc coated on Maxisorp plates in PBS overnight at 4°C, blocked with PBS/1% BSA; 50 μL conditioned supernatant of transfected HEK293T cells bound 1 h at room temperature; detection with anti-V5 or anti-LTBP-1 and anti-mouse-HRP; IgG1-Fc as control ligand.

Series [2] concerns the molecule itself. In words: scanning for intensely fluorescent targets (SIFT); purified proteins labelled with different fluorescent dyes, pre-cleared at 100,000 g, incubated pairwise in solution; 64 nM LTBP-1 variants, 160 nM N3EGF1-5; confocal single-particle measurement after 24 h.

As for “full-length LTBP-1S (short human isoform of latent TGF-β binding protein 1, 1395 aa) with N-terminal HA tag and C-terminal V5-His tag (natural protein)”, the fold binding over the control ligand IgG-Fc in series [1] turned out to be 4.9 fold.

B1: LTBP-1ΔN containing a C-terminal V5-His tag (LTBP-1ΔN_V5) (domain or fragment, human, UniProt Q14766-2 528-1395, looked up)
chain: APEASTSSASQVIAPTQVTEINECTVNPDICGAGHCINLPVRYTCICYEGYRFSEQQRKCVDIDECTQVQHLCSQGRCENTEGSFLCICPAGFMASEEGTNCIDVDECLRPDVCGEGHCVNTVGAFRCEYCDSGYRMTQRGRCEDIDECLNPSTCPDEQCVNSPGSYQCVPCTEGFRGWNGQCLDVDECLEPNVCANGDCSNLEGSYMCSCHKGYTRTPDHKHCRDIDECQQGNLCVNGQCKNTEGSFRCTCGQGYQLSAAKDQCEDIDECQHRHLCAHGQCRNTEGSFQCVCDQGYRASGLGDHCEDINECLEDKSVCQRGDCINTAGSYDCTCPDGFQLDDNKTCQDINECEHPGLCGPQGECLNTEGSFHCVCQQGFSISADGRTCEDIDECVNNTVCDSHGFCDNTAGSFRCLCYQGFQAPQDGQGCVDVNECELLSGVCGEAFCENVEGSFLCVCADENQEYSPMTGQCRSRTSTDLDVDVDQPKEEKKECYYNLNDASLCDNVLAPNVTKQECCCTSGVGWGDNCEIFPCPVLGTAEFTEMCPKGKGFVPAGESSSEAGGENYKDADECLLFGQEICKNGFCLNTRPGYECYCKQGTYYDPVKLQCFDMDECQDPSSCIDGQCVNTEGSYNCFCTHPMVLDASEKRCIRPAESNEQIEETDVYQDLCWEHLSDEYVCSRPLVGKQTTYTECCCLYGEAWGMQCALCPLKDSDDYAQLCNIPVTGRRQPYGRDALVDFSEQYTPEADPYFIQDRFLNSFEELQAEECGILNGCENGRCVRVQEGYTCDCFDGYHLDTAKMTCVDVNECDELNNRMSLCKNAKCINTDGSYKCLCLPGYVPSDKPNYCTPLNTALNLEKDSDLE
modifications: fluorescent dye label (dye and site not stated)
notes: numbers count on: the short isoform of 1395 aa; source: HEK293E, purified (metal-ion matrix, via His tag); not shown: V5, C-terminal, kept; His, C-terminal, kept
Consider B1, for which, in series [2], the binding result is given as “binds”.
